The test has as its target T1, human full-length RS1 fused to the GAL4 DNA binding domain (pBind-RS1) (human, UniProt O15537 1-224).
T1 construct: 224 amino acids), so with its own signal peptide in the construct; source: Cos1 cells, transfected (mammalian two-hybrid fusion)
T1 sequence (looked up): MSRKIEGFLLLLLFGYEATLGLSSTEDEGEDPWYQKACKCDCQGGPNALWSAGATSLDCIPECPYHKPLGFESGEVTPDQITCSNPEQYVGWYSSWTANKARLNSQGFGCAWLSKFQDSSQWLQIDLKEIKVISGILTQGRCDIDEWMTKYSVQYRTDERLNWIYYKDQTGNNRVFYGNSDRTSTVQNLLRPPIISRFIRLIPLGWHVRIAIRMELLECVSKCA
Nature of the test: two-hybrid; mammalian two-hybrid (luciferase reporter) in Cos1 cells: pBind-RS1 (GAL4 DNA binding domain, bait), pACT-Cav1.4-N terminal (VP16 activation domain), pG5Luc, 100 ng each; controls with empty pBind or pACT; n = 6. The conditions noted are these: partners not purified.

Bounds are passed on as bounds.

B1: human Cav1.4 N-terminal fragment fused to the VP16 activation domain (pACT-Cav1.4-N terminal) (domain or fragment)
chain: not shown
notes: the methods give 1-1481 bp from ATG, which is about 493 codons; the exact C-terminal limit follows from the reverse primer; also called hCav1.4-N; source: Cos1 cells, transfected (mammalian two-hybrid fusion)
Take B1: the “relative luciferase activity, fold over the controls” value is at least 4 fold.

Values taken from paper PMC5550728, “Retinoschisin Facilitates the Function of L-Type Voltage-Gated Calcium Channels” (Frontiers in Cellular Neuroscience, 2017).
